Data from patent publication US20220089698A1 (published 2022).
Substitutions are numbered along the chain they refer to.

B1: 1.24.1-1 (antibody, human IgG1, kappa)
heavy: QVQLLQSGAAVTKPGASVRVSCEASGYNIRDYFIHWWRQAPGQGLQWVGWINPKTGQPNNPRQFQGRVSLTRHASWDFDTFSFSMDLKALRSDDTAVYFCARQRSDYWDFDVWGSGTQVTVSSASTKGPSVFPLAPSSKSTSGGTAALGCLVKDYFPEPVTVSWNSGALTSGVHTFPAVLQSSGLYSLSSVVTVPSSSLGTQTYICNVNHKPSNTKVDKKVEPKSCDKTHTCPPCPAPELLAGPDVFLFPPKPKDTLMISRTPEVTCVVVDVSHEDPEVKFNWYVDGVEVHNAKTKPREEQYNSTYRVVSVLTVLHQDWLNGKEYKCKVSNKALPLPEEKTISKAKGQPREPQVYTLPPSREEMTKNQVSLTCLVKGFYPSDIAVEWESNGQPENNYKTTPPVLDSDGSFFLYSKLTVDKSRWQQGNVFSCSVLHEALHSHYTQKSLSLSPGK
light: DIQMTQSPSSLSASVGDTVTITCQANGYLNWYQQRRGKAPKLLIYDGSKLERGVPSRFSGRRWGQEYNLTINNLQPEDIATYFCQVYEFVVPGTRLDLKRTVAAPSVFIFPPSDEQLKSGTASVVCLLNNFYPREAKVQWKVDNALQSGNSQESVTEQDSKDSTYSLSSTLTLSKADYEKHKVYACEVTHQGLSSPVTKSFNRGEC
B2: 1.1.12-1 (antibody, human IgG1, kappa)
heavy: B1 heavy with S84Y
light: B1 light with N72S, N73S
B3: 1.29.1-1 (antibody, human IgG1, kappa)
heavy: B1 heavy with S84Y, S115Q
light: B1 light
B4: 1.1.21-1 (antibody, human IgG1, kappa)
heavy: B1 heavy with S84Y
light: B1 light with V91G, R95N
B5: 1.1.11-1 (antibody, human IgG1, kappa)
heavy: B1 heavy with S84Y
light: B1 light with R61S, N68T
B6: 1.1.3-1 (antibody, human IgG1, kappa)
heavy: B1 heavy with S84Y
light: B1 light with D1E
B7: 1.1.16-1 (antibody, human IgG1, kappa)
heavy: B1 heavy with S84Y
light: B1 light with V91G
B8: 1.26.1-1 (antibody, human IgG1, kappa)
heavy: B1 heavy with S84Y, V97T
light: B1 light
B9: 1.1.6-1 (antibody, human IgG1, kappa)
heavy: B1 heavy with S84Y
light: B1 light with G47A
B10: 1.1.22-1 (antibody, human IgG1, kappa)
heavy: B1 heavy with S84Y
light: B1 light with V91S, R95N
B11: 1.27.1-1 (antibody, human IgG1, kappa)
heavy: B1 heavy with S84Y, S105T
light: B1 light
B12: 1.1.17-1 (antibody, human IgG1, kappa)
heavy: B1 heavy with S84Y
light: B1 light with V90F, V91G
B13: 1.1.19-1 (antibody, human IgG1, kappa)
heavy: B1 heavy with S84Y
light: B1 light with V91T
B14: 1.1.25-1 (antibody, human IgG1, kappa)
heavy: B1 heavy with S84Y
light: B1 light with R95N, L96V
B15: 1.1.30-1 (antibody, human IgG1, kappa)
heavy: B1 heavy with S84Y
light: B1 light with V91T, R95N, L96V, L98I
B16: 1.1.23-1 (antibody, human IgG1, kappa)
heavy: B1 heavy with S84Y
light: B1 light with V91T, R95N
B17: 1.1.24-1 (antibody, human IgG1, kappa)
heavy: B1 heavy with S84Y
light: B1 light with L96V
B18: 1.1.7-1 (antibody, human IgG1, kappa)
heavy: B1 heavy with S84Y
light: B1 light with K49N
B19: 1.1.8-1 (antibody, human IgG1, kappa)
heavy: B1 heavy with S84Y
light: B1 light with G47A, K49N
B20: 1.1.13-1 (antibody, human IgG1, kappa)
heavy: B1 heavy with S84Y
light: B1 light with R61S, N68T, N72S, N73S
B21: 1.1.2-1 (antibody, human IgG1)
heavy: B1 heavy with S84Y
VL: DIQMTQSPSSLSASVGDTVTITCQANGYLNWYQQKPGKAPKLLIYDGSKLERGVPSRFSGRRWGQEYNLTINNLQPEDIATYFCQVYEFVVPGTKVDIK
B22: 1.1.28-1 (antibody, human IgG1, kappa)
heavy: B1 heavy with S84Y
light: B1 light with R95N, L96V, L98I
B23: 1.1.26-1 (antibody, human IgG1, kappa)
heavy: B1 heavy with S84Y
light: B1 light with L98I
B24: 1.1.5-1 (antibody, human IgG1, kappa)
heavy: B1 heavy with S84Y
light: B1 light with R35K, R36P
B25: 1.12.15-1 (antibody, human IgG1, kappa)
heavy: B1 heavy with W37V, S84Y
light: B1 light with V90F
B26: 1.1.29-1 (antibody, human IgG1, kappa)
heavy: B1 heavy with S84Y
light: B1 light with V91G, R95N, L96V, L98I
B27: 1.28.1-1 (antibody, human IgG1, kappa)
heavy: B1 heavy with S84Y, V97T, S105T
light: B1 light
B28: 1.13.15-1 (antibody, human IgG1, kappa)
heavy: B1 heavy with I34M, W37V, S84Y
light: B1 light with V90F
B29: 1.1.9-1 (antibody, human IgG1, kappa)
heavy: B1 heavy with S84Y
light: B1 light with R52T
B30: 1.1.10-1 (antibody, human IgG1, kappa)
heavy: B1 heavy with S84Y
light: B1 light with N68T
B31: 1.30.1-1 (antibody, human IgG1, kappa)
heavy: B1 heavy with S84Y, Q118M
light: B1 light
B32: 1.1.15-1 (antibody, human IgG1, kappa)
heavy: B1 heavy with S84Y
light: B1 light with V90F
B33: 1.1.27-1 (antibody, human IgG1, kappa)
heavy: B1 heavy with S84Y
light: B1 light with L96V, L98I
B34: 1.1.20-1 (antibody, human IgG1, kappa)
heavy: B1 heavy with S84Y
light: B1 light with R95N
B35: 1.25.1-1 (antibody, human IgG1, kappa)
heavy: B1 heavy with S84Y, K88S, A89R
light: B1 light
B36: 1.1.18-1 (antibody, human IgG1, kappa)
heavy: B1 heavy with S84Y
light: B1 light with V91S
B37: 1.1.4-1 (antibody, human IgG1, kappa)
heavy: B1 heavy with S84Y
light: B1 light with T18R

biological target: HIV gp120 Bal (HIV); assay: single-point ELISA; further: test concentration or dose not given here

Binder | ELISA (A450)
B1 | 0.98
B2 | 1.05
B3 | 1.03
B4 | 0.98
B5 | 0.92
B6 | 0.97
B7 | 1.06
B8 | 0.81
B9 | 0.91
B10 | 0.88
B11 | 0.86
B12 | 1.02
B13 | 1.03
B14 | 0.9
B15 | 0.9
B16 | 0.9
B17 | 0.88
B18 | 0.95
B19 | 1.01

Binder | ELISA (A450)
B20 | 0.94
B21 | 0.95
B22 | 0.98
B23 | 0.96
B24 | 0.9
B25 | 0.69
B26 | 0.91
B27 | 1.05
B28 | 0.7
B29 | 0.98
B30 | 0.94
B31 | 0.81
B32 | 0.93
B33 | 0.97
B34 | 0.94
B35 | 1.07
B36 | 0.92
B37 | 0.96

biological target: HIV gp120 CAAN (HIV); assay: single-point ELISA; further: test concentration or dose not given here

Binder | ELISA (A450)
B1 | 0.9
B2 | 1.02
B3 | 1.08
B4 | 0.99
B5 | 1.03
B6 | 1
B7 | 0.99
B8 | 1
B9 | 0.46
B10 | 1.02
B11 | 0.86
B12 | 0.9
B13 | 1.05
B14 | 0.92
B15 | 0.86
B16 | 0.95
B17 | 0.98
B18 | 1
B19 | 0.5

Binder | ELISA (A450)
B20 | 1.11
B21 | 0.93
B22 | 0.93
B23 | 1.07
B24 | 0.9
B25 | 0.63
B26 | 1.01
B27 | 0.99
B28 | 0.6
B29 | 0.93
B30 | 1.1
B31 | 1.05
B32 | 0.79
B33 | 0.99
B34 | 0.95
B35 | 1.16
B36 | 0.92
B37 | 1.09
